Laboratory results from doi:10.1101/2025.05.28.656718.

Target: His-tagged PKM1 (human) (UniProt P14618)
Test: AlphaScreen or HTRF

Sequence of Pep-SP1 (Q6SZW1 whole entry, looked up): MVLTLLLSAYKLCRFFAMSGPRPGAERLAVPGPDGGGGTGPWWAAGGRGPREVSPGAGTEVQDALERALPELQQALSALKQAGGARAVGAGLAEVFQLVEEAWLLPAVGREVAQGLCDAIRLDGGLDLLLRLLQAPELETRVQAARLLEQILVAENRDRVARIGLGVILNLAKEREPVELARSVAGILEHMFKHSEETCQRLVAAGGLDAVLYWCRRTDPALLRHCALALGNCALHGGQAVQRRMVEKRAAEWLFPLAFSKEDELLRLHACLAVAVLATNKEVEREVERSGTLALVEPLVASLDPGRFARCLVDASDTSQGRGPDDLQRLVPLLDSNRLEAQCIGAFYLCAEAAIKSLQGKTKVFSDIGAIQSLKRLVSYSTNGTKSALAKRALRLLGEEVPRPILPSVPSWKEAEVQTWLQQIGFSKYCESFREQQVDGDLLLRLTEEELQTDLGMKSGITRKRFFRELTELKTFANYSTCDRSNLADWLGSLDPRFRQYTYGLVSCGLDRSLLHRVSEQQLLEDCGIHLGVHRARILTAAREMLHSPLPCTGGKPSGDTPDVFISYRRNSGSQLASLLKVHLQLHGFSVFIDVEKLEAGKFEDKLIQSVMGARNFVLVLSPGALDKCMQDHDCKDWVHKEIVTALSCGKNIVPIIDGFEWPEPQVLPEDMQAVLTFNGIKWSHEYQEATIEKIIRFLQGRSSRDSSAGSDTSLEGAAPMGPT

IC50: 1070 nM
Substance: Pep-SP1 (from UniProt Q6SZW1 645-655) (peptide)
